Reference: article PMC3547953

Biological target: tumor necrosis factor-alpha (TNF-α) (UniProt P01375)
UniProt P01375, sequence (P01375 77-233): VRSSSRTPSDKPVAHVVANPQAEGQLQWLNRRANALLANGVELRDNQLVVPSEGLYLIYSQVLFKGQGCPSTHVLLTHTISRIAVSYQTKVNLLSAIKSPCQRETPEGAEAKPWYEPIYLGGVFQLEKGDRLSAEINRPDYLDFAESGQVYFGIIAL

anti-TNF-α antibody (ENBREL), a chimeric molecule combining the ligand-binding domain of the TNF-receptor 2 and the Fc-domain of human IgG1 (Fc fusion)
apoptosis (TUNEL, DNA strand breaks) of uninfected monocytes induced by added TNF-α, with anti-TNF-α mAb (ENBREL, 1 µg/ml): 50%
